According to publication PMC11575137 (BMC Biology, 2024):

Target: KRAS^G12D mutant
Assay: BLI binding kinetics assay, KRAS G12D mutant
Conditions: protein-protein; BLI (Fig. S5)

- Kd: 51 µM
B1: GRB10: potential KRAS-interacting protein, UniProt Q13322 (protein, UniProt Q13322 1-594, looked up)
Growth factor receptor-bound …: MALAGCPDSFLHHPYYQDKVEQTPRSQQDPAGPGLPAQSDRLANHQEDDVDLEALVNDMNASLESLYSACSMQSDTVPLLQNGQHARSQPRASGPPRSIQPQVSPRQRVQRSQPVHILAVRRLQEEDQQFRTSSLPAIPNPFPELCGPGSPPVLTPGSLPPSQAAAKQDVKVFSEDGTSKVVEILADMTARDLCQLLVYKSHCVDDNSWTLVEHHPHLGLERCLEDHELVVQVESTMASESKFLFRKNYAKYEFFKNPMNFFPEQMVTWCQQSNGSQTQLLQNFLNSSSCPEIQGFLHVKELGKKSWKKLYVCLRRSGLYCSTKGTSKEPRHLQLLADLEDSNIFSLIAGRKQYNAPTDHGLCIKPNKVRNETKELRLLCAEDEQTRTCWMTAFRLLKYGMLLYQNYRIPQQRKALLSPFSTPVRSVSENSLVAMDFSGQTGRVIENPAEAQSAALEEGHAWRKRSTRMNILGSQSPLHPSTLSTVIHRTQHWFHGRISREESHRIIKQQGLVDGLFLLRDSQSNPKAFVLTLCHHQKIKNFQILPCEDDGQTFFSLDDGNTKFSDLIQLVDFYQLNKGVLPCKLKHHCIRVAL
